Results reported in patent US12697371B2, “Method for preventing, treating or delaying myocardial damage using neuregulin and composition” (ZENSUN (SHANGHAI) SCIENCE & TECHNOLOGY, CO., LTD., priority 2019, dated 2026).
Entries after “also recorded” stand apart in the source; their conditions may differ.

Key:
[1] = system: rats with acute myocardial infarction caused by left coronary artery ligation; assay: Echocardiography, rat acute myocardial infarction (left coronary artery ligation), 60-day subcutaneous NRG at different doses (Example 1); type: in vivo, Wistar rats; conditions: for EF / LVEDd / LVEDs: 3 times a day
From the text: 5.1 Establishment of a Rat Model of Heart Failure Caused by Coronary Artery Ligation
The rats were anesthetized with isoflurane through a gaseous anesthesia apparatus. Then, the rats were fixed in a supine position. After chest hair removal, the skin was disinfected with 75% alcohol. After the incision of the left anterior chest skin, the thoracic muscles were bluntly separated, with the 4th and 5th ribs exposed. Hemostatic forceps were used to bluntly cut off the muscle between the 4th and 5th ribs. Both hands were used to squeeze the heart out of the thoracic cavity so that the heart should be fully exposed for observation of lung inflation and heartbeats. The left atrial appendage and pulmonary conus were fully exposed to ligate the left anterior descending coronary artery (LADCA) with surgical suture between them. […] Then, the thoracic muscles and skin were sutured. After surgery, the rats were put back into the cages for feeding and close observations.
Administration began on the day following the animal model establishment of myocardial infarction.
(§1) After being anesthetized with 4% isoflurane, the rats were fixed onto the operating board in the left lateral recumbent position. The head of the rats was fixed in the breathing mask of the gaseous anesthesia machine, with isoflurane used for maintenance of anesthesia. After chest hair removal, the skin was disinfected with 75% alcohol and coated with a coupling agent. An echocardiography probe was used to detect any echo signal from the left ventricle of the rats. The left ventricular end-diastolic diameter and left ventricular end-systolic diameter (D) were measured. The left ventricular end-diastolic volume (EDV) and end-systolic volume (ESV) were calculated. Also, the ejection fraction (EF) value was found, EF=(EDV−ESV)/EDV*100%.

[2] = system: rats with acute myocardial infarction caused by left coronary artery ligation; assay: Echocardiography, rat acute myocardial infarction, long-term subcutaneous NRG followed by withdrawal through frequency reduction (Example 3); type: in vivo, Wistar rats
Experimental: Established in the same way as the rat model of heart failure caused by coronary artery ligation in 5.1, Embodiment 1
The rats were randomly divided into groups and medicated upon coronary artery ligation. According to post-ligation survival, the rats were randomly divided into two groups, including the excipient group and the NRG30 μg/kg group. There were 19 rats in the excipient group and there were 18 rats in the NRG group. Continuous administration of medicine started on the day following the modeling, with subcutaneous administration for 3 times a day, at a dose of 10 μg/kg. Echocardiography was performed on day 14 after modeling. All the animals were medicated continuously until day 38, and the animals in the NRG group were examined by echocardiography. The animals in the NRG group were averagely divided into two subgroups, with the animals in one subgroup continuing to be medicated while the animals in the other subgroup stopped taking medicine at an early stage. The excipient group continued to be medicated. For the continuous NRG administration subgroup, a 3-week withdrawal plan was implemented on day 49: medicated every other day in the first week; medicated every three days in the second week; subcutaneously injected with NRG every four days in the third week. In terms of administration method, the rats were subcutaneously injected with NRG 3 times a day, exactly the same as above. For the NRG withdrawal subgroup, the clinical symptoms of the rats were observed. All the animals underwent echocardiography every week for monitoring of the changes in the cardiac function.
as §1
All experimental data were expressed in ±SD. GraphPad Prism6 was used for one-way ANOVA analysis. P<0.05 indicates a significant inter-group difference; P<0.01 indicates an extremely significant inter-group difference.

[3] = DAY 14, 30 μg/kg sc (10 μg/kg 3 times a day), continuous
[4] = DAY 21, 30 μg/kg sc (10 μg/kg 3 times a day), continuous
[5] = DAY 28, 30 μg/kg sc (10 μg/kg 3 times a day), continuous
[6] = DAY 35, 30 μg/kg sc (10 μg/kg 3 times a day), continuous
[7] = DAY 38, Administration subgroup, 30 μg/kg sc continued
[8] = DAY 38, Withdrawal subgroup, 30 μg/kg sc until day 38, then stopped
[9] = DAY 42, Administration subgroup, 30 μg/kg sc continued
[10] = DAY 42, Withdrawal subgroup, 30 μg/kg sc until day 38, then stopped
[11] = DAY 49, Administration subgroup, 30 μg/kg sc continued
[12] = DAY 49, Withdrawal subgroup, 30 μg/kg sc until day 38, then stopped
[13] = DAY 56, Administration subgroup, 30 μg/kg sc, 3-week gradual withdrawal by frequency reduction from day 49
[14] = DAY 56, Withdrawal subgroup, 30 μg/kg sc until day 38, then stopped
[15] = DAY 63, Administration subgroup, 30 μg/kg sc, 3-week gradual withdrawal by frequency reduction from day 49
[16] = DAY 63, Withdrawal subgroup, 30 μg/kg sc until day 38, then stopped
[17] = DAY 68, Administration subgroup, 30 μg/kg sc, 3-week gradual withdrawal by frequency reduction from day 49
[18] = DAY 68, Withdrawal subgroup, 30 μg/kg sc until day 38, then stopped
[19] = DAY 74, Administration subgroup, 30 μg/kg sc, 3-week gradual withdrawal by frequency reduction from day 49
[20] = DAY 74, Withdrawal subgroup, 30 μg/kg sc until day 38, then stopped

B1: NRG: fragment of the NRG-1β2 isomer, 177-237 amino acid fragment containing an EGF-like domain (SEQ ID NO: 1); developed by Zensun (protein, listed as Homo sapiens)
chain: SHLVKCAEKEKTFCVNGGECFMVKDLSNPSRYLCKCPNEFTGDRCQNYVMASFYKAEELYQ
[1]; DAY 20, 3.75 μg/kg/D sc
  EF: 39.7 ± 10.84%
  LVEDd: 0.937 ± 0.06 cm
  LVEDs: 0.777 ± 0.08 cm
[1]; DAY 20, 7.5 μg/kg/D sc
  EF: 41.9 ± 15.17%
  LVEDd: 0.924 ± 0.05 cm
  LVEDs: 0.756 ± 0.08 cm
[1]; DAY 20, 15 μg/kg/D sc
  EF: 40.6 ± 9.15%
  LVEDd: 0.908 ± 0.05 cm
  LVEDs: 0.759 ± 0.08 cm
[1]; DAY 40, 3.75 μg/kg/D sc
  EF: 40.4 ± 12.86%
  LVEDd: 0.982 ± 0.09 cm
  LVEDs: 0.813 ± 0.13 cm
[1]; DAY 40, 7.5 μg/kg/D sc
  EF: 40.5 ± 13.39%
  LVEDd: 0.946 ± 0.08 cm
  LVEDs: 0.782 ± 0.12 cm
[1]; DAY 40, 15 μg/kg/D sc
  EF: 42.2 ± 11.27%
  LVEDd: 0.946 ± 0.08 cm
  LVEDs: 0.775 ± 0.11 cm
[1]; DAY 60, 3.75 μg/kg/D sc
  EF: 37.0±12.23%
  LVEDd: 0.994±0.08 cm
  LVEDs: 0.839±0.12 cm
[1]; DAY 60, 7.5 μg/kg/D sc
  EF: 38.4±12.17%
  LVEDd: 0.965±0.07 cm
  LVEDs: 0.808±0.11 cm
[1]; DAY 60, 15 μg/kg/D sc
  EF: 42.9±11.32%
  LVEDd: 0.975±0.07 cm
  LVEDs: 0.794±0.10 cm
[1]; high-, middle- and low-dose groups (15, 7.5, 3.75 μg/kg/D sc), after 60 days of continuous administration
  Cardiac function / EF value compared with the control group: all improved; also recorded: higher than that of the control group
[1]; high-dose group (15 μg/kg/D sc), 60 days
  LVEDd and LVEDs compared with the excipient group: could be reduced
[2]; 30 μg/kg sc, after 35 consecutive days
  LVEDd and LVEDs, cardiac systolic function, left ventricular remodeling: significantly reduce the LVEDd and LVEDs and strengthen the cardiac systolic function, thereby reversing left ventricular remodeling
[2]; [3]
  EF: 44.5 ± 7.85 %
  LVEDd: 0.860 ± 0.04 cm
  LVEDs: 0.694 ± 0.06 cm
[2]; [4]
  EF: 45.5 ± 7.96 %
  LVEDd: 0.905 ± 0.04 cm
  LVEDs: 0.725 ± 0.06 cm
[2]; [5]
  EF: 44.3 ± 6.95 %
  LVEDd: 0.928 ± 0.05 cm
  LVEDs: 0.749 ± 0.06 cm
[2]; [6]
  EF: 44.9±6.09%
  LVEDd: 0.953±0.05 cm
  LVEDs: 0.767±0.06 cm
[2]; [7]
  EF: 44.9 ± 7.03%
  LVEDd: 0.953 ± 0.06 cm
  LVEDs: 0.764 ± 0.07 cm
[2]; [8]
  EF: 44.7 ± 6.26%
  LVEDd: 0.952 ± 0.05 cm
  LVEDs: 0.767 ± 0.07 cm
[2]; [9]
  EF: 46.5 ± 4.01 %
  LVEDd: 0.948 ± 0.04 cm
  LVEDs: 0.755 ± 0.04 cm
[2]; [10]
  EF: 39.1 ± 7.11 %
  LVEDd: 0.969 ± 0.04 cm
  LVEDs: 0.808 ± 0.05 cm
[2]; [11]
  EF: 45.0±5.51%
  LVEDd: 0.973±0.07 cm
  LVEDs: 0.783±0.08 cm
[2]; [12]
  EF: 42.2±5.48%
  LVEDd: 0.987±0.05 cm
  LVEDs: 0.807±0.06 cm
[2]; [13]
  EF: 38.8 ± 3.78 %
  LVEDd: 1.008 ± 0.06 cm
  LVEDs: 0.843 ± 0.06 cm
[2]; [14]
  EF: 39.0 ± 6.24 %
  LVEDd: 1.031 ± 0.05 cm
  LVEDs: 0.859 ± 0.07 cm
[2]; [15]
  EF: 41.3±4.92%
  LVEDd: 0.989±0.07 cm
  LVEDs: 0.814±0.08 cm
[2]; [16]
  EF: 35.4±6.78%
  LVEDd: 1.043±0.06 cm
  LVEDs: 0.887±0.06 cm
[2]; [17]
  EF: 40.8±4.67%
  LVEDd: 0.976±0.06 cm
  LVEDs: 0.805±0.07 cm
[2]; [18]
  EF: 38.9±5.04%
  LVEDd: 1.010±0.06 cm
  LVEDs: 0.842 ± 0.06 cm
[2]; [19]
  EF: 38.0 ± 3.81 %
  LVEDd: 1.004 ± 0.05 cm
  LVEDs: 0.842 ± 0.05 cm
[2]; [20]
  EF: 34.6 ± 7.55%
  LVEDd: 1.060 ± 0.05 cm
  LVEDs: 0.905 ± 0.05 cm
[2]; day 49, withdrawal subgroup stopped after day 38
  Effect of sudden withdrawal on cardiac function: exerted some effect on the cardiac function of the rats
[2]; long-term sc administration followed by withdrawal through frequency reduction
  Cardiac function and cardiac remodeling, overall conclusion: can improve the cardiac function of the rats with myocardial infarction and reduce cardiac remodeling
